Results as given in patent US20110229423A1 (Galderma Research & Development, priority 2008, published 2011).
Ends that are not written are not given here.

Key:
human skin [1] = assay: Skin temperature (ST) in human volunteers before and after intravenous peptide application; type: in vivo
Description: First, the skin temperature (ST) was measured in different human body regions before and after continuous intravenous application of 100 pmol/kg b.w./h PACAP1-27. Under basal conditions a ST of 33.51±0.25° C. was measured at 0 min. Differences of ST [ΔT(° C.)] were measured after 5, 15, 30, 45, 60 min (FIG. 1: Changes in skin temperature [ΔT(° C.)] as compared to basal (0=33.51±0.25° C.) before and after continuous infusion of 100 pmol/kg b.w./h PACAP1-27 Mean±SEM, *=p<0.05 (n=10)). […] This increase persisted even after 30 min although less dramatic (+1.8° C.±0.26). […] This PACAP-induced effect in human skin was dose-dependent (FIG. 2: Changes in skin temperature [ΔT(° C.)] as compared to basal after continuous infusion of 7.5, 15, or 30 pmol/kg b.w./h PACAP1-27. Mean±SEM, *=p<0.05 (n=9). Mean time until first flush symptoms occurred was 46.03±5.30 min.). […] Next, ST was measured in different body regions before and after a bolus injection of […] PACAP1-27. […] Changes in skin temperature [ΔT(° C.)] as compared to basal ([…]=33.51±0.25° C.) under different conditions of continuous infusion and concentrations (◯=1 μg/kg b.w./h PACAP1-27; o=100 pmol/kg b.w./h). Mean±SEM, *=p<0.05 (n=10)). […] Mean±SEM, *=p<0.05 (n=7)).

VPAC1R = target: T1, VPAC1R (Homo sapiens, UniProt P32241); assay: In vitro measurement of cAMP activation in HDMEC; type: cell-based
T1 construct: To confirm that HDMEC express functional VPAC1R, we kept HDMEC in FCS/nutrient deficient medium for 24 h; endogenous in cells; host or cells: HDMEC (human dermal microvascular endothelial cells)
T1 sequence (P32241 31-457): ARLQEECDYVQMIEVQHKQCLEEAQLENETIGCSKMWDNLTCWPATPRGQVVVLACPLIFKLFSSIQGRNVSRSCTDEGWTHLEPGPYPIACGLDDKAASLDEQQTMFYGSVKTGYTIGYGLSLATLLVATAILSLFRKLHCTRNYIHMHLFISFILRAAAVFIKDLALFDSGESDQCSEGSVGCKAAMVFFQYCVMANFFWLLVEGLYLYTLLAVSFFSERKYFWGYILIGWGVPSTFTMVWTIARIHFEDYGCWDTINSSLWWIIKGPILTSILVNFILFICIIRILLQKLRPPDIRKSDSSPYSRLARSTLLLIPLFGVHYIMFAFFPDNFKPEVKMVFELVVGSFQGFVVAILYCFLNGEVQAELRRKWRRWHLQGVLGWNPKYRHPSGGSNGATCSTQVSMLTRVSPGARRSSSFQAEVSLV
Description: For example, Human Dermal Microvascular Endothelial cells (HDMEC) can be grown in endothelial cell growth medium. Lyophilized PACAP1-38 can be diluted in the appropriate volume of HDMEC assay medium immediately prior to use. IBMX (3-Isobutyl-1-Methylxanthin) can be added to the medium as a phosphodiesterase inhibitor in order to measure all the intracellular built cAMP after receptor stimulation without the intrinsic phosphdiesterase cleaving some of it. After 24 h cells can be harvested and extracted with 65% ethanol in PBS which can be lyophilized and the cAMP concentration can be examined using a cAMP EIA-direct assay (Amersham Pharmacia Biotech).
Pretreatment with antagonist was 3 min before agonist stimulation. […] Experiments were performed at least three times). IBMX (3-Isobutyl-1-Methylxanthin; 4 mM) was added to the medium as a phosphodiesterase inhibitor in order to measure all the intracellular built cAMP after receptor stimulation without the intrinsic phosphodiesterase cleaving some of it.

HDMEC = assay: ELISA for NO release by HDMEC; type: cell-based, human
Excerpt: In an alternative approach, the determination of the activity of PACAP signalling pathway can be carried out using an Enzyme-Linked Immunosorbent Assay (ELISA) for nitric oxide (NO) production in HDMEC. To study cytokine release by HDMEC after PACAP stimulation, cells can be stimulated as described above and supernatants can be collected and frozen until use for ELISA assays. For the detection of NO release, NO-ELISA kits, for example from BioSource Int. can be used.
PACAP-induced release of NO in HDMEC. After finding that HDMEC express functional VPAC1R and that VPAC1R is the crucial receptor in human skin epithelium on the protein level, we examined whether PACAP is capable of releasing NO from HDMEC at similar concentrations. Therefore, we performed specific ELISAs with supernatants collected at time-points between […] (FIG. 12). Indeed, PACAP (10^−9 M) induced the release of NO (582%+/−25) by HDMEC as compared to control with a maximal effect at 15 min.

[2] = Systemic parameters: pulse and blood pressure RR syst./diast. during PACAP infusion; type: in vivo, human
Excerpt: To test whether these prominent effects in human skin (erythema, edema) and difference in skin temperature [ΔT(° C.)] were due to a local vascular effect and not due to a secondary systemic effect we measured systemic parameters such as pulse (B/min) and blood pressure RR syst./diast. (mm Hg). […] Thus, PACAP-induced changes are most likely due to a local effect in cutaneous vasculature.

human skin [3] = assay: Flush phenomenon (erythema, edema) in volunteers after intravenous PACAP1-27; type: in vivo
Description: B) Flush phenomenon in a probationer after intravenous application of PACAP1-27. Note cutaneous erythema and facial as well as a marked periorbital edema 30 min after application). […] The approximate duration when first signs of a “flush” occurred were 46.03±5.3 min with 100 pmol/kg b.w./h PACAP1-27. The erythema persisted approximately for 6 h.

[4] = 30 min, change from 7.5 to 15 pmol/kg/h
[5] = 60 min, change from 15 to 30 pmol/kg/h

In the case of “vasoactive intestinal peptide (HSDAVFTDNYTRLRKQMAVKKYLNSILN; ends and bridges not checked; UniProt P01282 125-152, looked up) [VIP1-28]”, the “increase of skin temperature vs basal” value (human skin [1]; i.v. infusion 20 pmol/kg b.w./h, n=7) was “did not result in a significant increase of ST” and the “increase of skin temperature ΔT vs basal” value (human skin [1]; i.v. infusion 100 pmol/kg b.w./h, maximum after 60 min, n=7) was 1.36 °C.

In the case of “PACAP6-27 (FTDSYSRYRKQMAVKKYLAAVL; ends and bridges not checked; UniProt P18509 137-158, looked up, fragment)”, the “effect on agonist-induced cAMP activation” value (VPAC1R; 10^-7 M (100× the agonist), pretreatment 3 min before agonist) was “cut in half”, the “PACAP-induced NO release after antagonist preincubation (value in brackets)” value (HDMEC; preincubation before PACAP) was 79+/−22 and the “effect of preincubation on PACAP-induced NO release” value (HDMEC; preincubation before PACAP) was “slightly enhanced”. For the same substance, the “NO release when TNFa was incubated with the antagonist” value (HDMEC; with TNFa) was “significantly lower”.

In the case of “Pituitary adenylate cyclase activating polypeptide [PACAP]”, the “R diastol.” value ([2]; 5 min, infusion 7.5 pmol/kg/h) was 72 ± 4 mmHg, the “R systol.” value ([2]; 5 min, infusion 7.5 pmol/kg/h) was 107 ± 4 mmHg and the pulse ([2]; 5 min, infusion 7.5 pmol/kg/h) was 64 ± 3 B/min. The “R diastol.” value ([2]; 15 min, infusion 7.5 pmol/kg/h) was 75 ± 3 mmHg, the “R systol.” value ([2]; 15 min, infusion 7.5 pmol/kg/h) was 109 ± 4 mmHg and the pulse ([2]; 15 min, infusion 7.5 pmol/kg/h) was 66 ± 4 B/min. The “R diastol.” value [2, 4] was 75 ± 3 mmHg, the “R systol.” value [2, 4] was 111 ± 5 mmHg and the pulse [2, 4] was 68 ± 3 B/min. For the same substance, the “R diastol.” value ([2]; 35 min, infusion 15 pmol/kg/h) was 74 ± 4 mmHg, the “R systol.” value ([2]; 35 min, infusion 15 pmol/kg/h) was 111 ± 5 mmHg and the pulse ([2]; 35 min, infusion 15 pmol/kg/h) was 69 ± 3 B/min. For the same substance, the “R diastol.” value ([2]; 45 min, infusion 15 pmol/kg/h) was 74 ± 4 mmHg, the “R systol.” value ([2]; 45 min, infusion 15 pmol/kg/h) was 111 ± 5 mmHg and the pulse ([2]; 45 min, infusion 15 pmol/kg/h) was 73 ± 4 B/min. For the same substance, the “R diastol.” value [2, 5] was 74 ± 3 mmHg, the “R systol.” value [2, 5] was 111 ± 5 mmHg and the pulse [2, 5] was 69 ± 3 B/min. The “R diastol.” value ([2]; 65 min, infusion 30 pmol/kg/h) was 74 ± 3 mmHg, the “R systol.” value ([2]; 65 min, infusion 30 pmol/kg/h) was 109 ± 5 mmHg and the pulse ([2]; 65 min, infusion 30 pmol/kg/h) was 71 ± 3 B/min. The “R diastol.” value ([2]; 75 min, infusion 30 pmol/kg/h) was 74 ± 3 mmHg, the “R systol.” value ([2]; 75 min, infusion 30 pmol/kg/h) was 110 ± 5 mmHg and the pulse ([2]; 75 min, infusion 30 pmol/kg/h) was 72 ± 2 B/min. For the same substance, the “R diastol.” value ([2]; 90 min (end of infusion)) was 72 ± 4 mmHg, the “R systol.” value ([2]; 90 min (end of infusion)) was 109 ± 5 mmHg and the pulse ([2]; 90 min (end of infusion)) was 69 ± 3 B/min. The “R diastol.” value ([2]; 100 min, after end of infusion) was 73 ± 4 mmHg, the “R systol.” value ([2]; 100 min, after end of infusion) was 109 ± 5 mmHg and the pulse ([2]; 100 min, after end of infusion) was 66 ± 4 B/min. The “R diastol.” value ([2]; 110 min, after end of infusion) was 72 ± 4 mmHg, the “R systol.” value ([2]; 110 min, after end of infusion) was 109 ± 4 mmHg and the pulse ([2]; 110 min, after end of infusion) was 68 ± 4 B/min. For the same substance, the “R diastol.” value ([2]; 120 min, after end of infusion) was 74 ± 3 mmHg, the “R systol.” value ([2]; 120 min, after end of infusion) was 112 ± 4 mmHg and the pulse ([2]; 120 min, after end of infusion) was 71 ± 4 B/min. The “differences in RR syst./diast. or pulse” value ([2]; during and after infusion) was “No measurable differences”, the “cAMP activation compared to the negative control” value (VPAC1R; 10^−9 M, IBMX 4 mM) was “more than 4 fold” and the “activation of VPAC1R in HDMEC (cAMP)” value (VPAC1R; FIG. 10) was “dose-dependent activation”. For the same substance, the “release of NO as compared to control” value (HDMEC; 10^−9 M) was 582%, the “time of maximal effect on NO release” value (HDMEC; 10^−9 M) was 15 min and the “NO release on incubation together with TNFα, versus TNFα alone” value (HDMEC; with TNFα) was “additive effect”.

With PACAP1-27 the “increase of skin temperature, bolus versus continuous infusion” value (human skin [1]; bolus 1 μmol/kg b.w./h compared with continuous 100 pmol/kg b.w./h) was “significantly higher increase of ST”, the “maximum increase of skin temperature ΔT vs basal” value (human skin [1]; bolus injection 1 μmol/kg b.w./h, maximum after 30 min, n=8) was 2.7 °C and the “skin temperature course after bolus” value (human skin [1]; bolus injection, after 60 min) was “slight decrease of ST”. The “skin temperature compared to basal” value (human skin [1]; bolus injection, after 120 min) was “still elevated”, the “increase of skin temperature ΔT vs basal” value (human skin [1]; continuous i.v. 100 pmol/kg b.w./h, after 5 min, n=10, mean±SEM) was 1.2 °C and the “increase of skin temperature ΔT vs basal” value (human skin [1]; continuous i.v. 100 pmol/kg b.w./h, after 30 min, n=10, mean±SEM) was 1.8 °C. The “further increase of skin temperature compared to 30 min” value (human skin [1]; continuous i.v. 100 pmol/kg b.w./h, between 30 and 60 min) was “no significant increase of ST”, the “increase of skin temperature ΔT vs basal” value (human skin [1]; i.v. infusion 7.5 pmol/kg b.w./h over 30 min, n=9) was 1.25 °C and the “increase of skin temperature ΔT vs basal” value (human skin [1]; i.v. infusion 15 pmol/kg b.w./h, n=9) was 2.1 °C. For the same substance, the “increase of skin temperature ΔT vs basal” value (human skin [1]; i.v. infusion 30 pmol/kg b.w./h, n=9) was 2.4 °C, the “skin temperature after stop of infusion” value (human skin [1]; immediately after infusion of 30 pmol/kg b.w./h was stopped) was “slowly decreased” and the “approximate duration when first signs of a flush occurred” value (human skin [3]; 100 pmol/kg b.w./h) was 46.03 ± 5.3 min. The “mean time until first flush symptoms occurred” value (human skin [3]; FIG. 2: continuous infusion of 7.5, 15, or 30 pmol/kg b.w./h, n=9) was 46.03 ± 5.30 min, the persistence of erythema (human skin [3]; after i.v. application) was roughly 6 h and the “erythema (flushing) and edema compared to control injections” value (human skin [3]; all participants, bolus and continuous infusion) was “significant development of erythema (flushing) and edema”. For the same substance, the “healthy volunteers in whom the effect was dominant in the face and upper trunk” value (human skin [3]; i.v. application) was “nine out of ten”.
